This passage reports normalised SPOT signal, Boehringer light units (BLU); mean over the file's lines of this peptide results from PMC314469, “Protein Interaction Networks by Proteome Peptide Scanning” (PLoS Biology, 2004).

This assay has as its target T1, Abp1 SH3 (ABP1_YEAST), P15891.
T1 chain: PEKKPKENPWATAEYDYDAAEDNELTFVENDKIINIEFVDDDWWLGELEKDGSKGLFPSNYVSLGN
The experiment in a line: SPOT array.
As for DIDMPVNPPFRKP [YBL015W 191-203], the normalised SPOT signal, Boehringer light units (BLU); mean over the file's lines of this peptide turned out to be 257.

Consider DIEMKDVSSKPSKP [YPR070W 510-523], for which the normalised SPOT signal, Boehringer light units (BLU); mean over the file's lines of this peptide was determined as 85.7.

Regarding DIADLEEPFLPRP [YIL109C 377-389], the normalised SPOT signal, Boehringer light units (BLU); mean over the file's lines of this peptide came out at 65.6.

In turn, DKQLIWHKSKPVKP [YBL005W-B 1588-1601] registered a normalised SPOT signal, Boehringer light units (BLU); mean over the file's lines of this peptide of 2860.

As to DPEPAKASTKPEKP [YNL106C 1102-1115], the normalised SPOT signal, Boehringer light units (BLU); mean over the file's lines of this peptide worked out at 76.2.

Regarding DVDSSSTPFGTKP [YIL115C 681-693], the normalised SPOT signal, Boehringer light units (BLU); mean over the file's lines of this peptide stood at 113.

As to DKKDLDSPIEVKP [YKL092C 848-860], the normalised SPOT signal, Boehringer light units (BLU); mean over the file's lines of this peptide worked out at 36.5.

The molecule EDFKDTKPVHKKP [YOR287C 64-76] registered a normalised SPOT signal, Boehringer light units (BLU); mean over the file's lines of this peptide of 144.

The molecule DKVFIPDPKTGRP [YAL054C 106-118] returned a normalised SPOT signal, Boehringer light units (BLU); mean over the file's lines of this peptide of 66.6.

Turning to DKQLIWHKNKPTKP [YBL101W-B 1603-1616], the normalised SPOT signal, Boehringer light units (BLU); mean over the file's lines of this peptide was determined as 1730.

In turn, EALKQKKIPPPFKP [YHR205W 677-690] yielded a normalised SPOT signal, Boehringer light units (BLU); mean over the file's lines of this peptide of 3010.

Take DLEFIYDTFHPFKP [YPL009C 301-314]: the normalised SPOT signal, Boehringer light units (BLU); mean over the file's lines of this peptide amounted to 89.2.

The molecule DNARKSEELYPGRP [YAL038W 65-78] showed a normalised SPOT signal, Boehringer light units (BLU); mean over the file's lines of this peptide of 105.

Regarding DTERLKRDLSPRKP [YBL111C 228-241], the normalised SPOT signal, Boehringer light units (BLU); mean over the file's lines of this peptide was 394.

Molecule DHVDIFVPSGGRP [YDL215C 852-864] yielded a normalised SPOT signal, Boehringer light units (BLU); mean over the file's lines of this peptide of 33.3.

In turn, DTKRLGTPESVKP [YLR071C 1030-1042] gave a normalised SPOT signal, Boehringer light units (BLU); mean over the file's lines of this peptide of 130.

On to DVPNTAGPHIARP [YOR028C 108-120], for which the normalised SPOT signal, Boehringer light units (BLU); mean over the file's lines of this peptide amounted to 144.

As for DVITHFGPDADKP [YBL035C 6-18], the normalised SPOT signal, Boehringer light units (BLU); mean over the file's lines of this peptide amounted to 25.6.

DNDEEADPSSFKP [YLR087C 1186-1198] displayed a normalised SPOT signal, Boehringer light units (BLU); mean over the file's lines of this peptide of 68.3.

Take EDEEGPPPAMPARP [YBL007C 188-201]: the normalised SPOT signal, Boehringer light units (BLU); mean over the file's lines of this peptide worked out at 36.2.

Molecule DMERKMTPALNRP [YDR074W 548-560] had a normalised SPOT signal, Boehringer light units (BLU); mean over the file's lines of this peptide of 2180.

With DNIAEYVPDKKRP [YMR266W 274-286], the normalised SPOT signal, Boehringer light units (BLU); mean over the file's lines of this peptide worked out at 91.

DVMKQSFPRLIKP [YPL073C 93-105] came in with a normalised SPOT signal, Boehringer light units (BLU); mean over the file's lines of this peptide of 2470.

The molecule DWALLRNQNDPQKP [YLR357W 414-427] returned a normalised SPOT signal, Boehringer light units (BLU); mean over the file's lines of this peptide of 145.

Consider DMFDFLIDVVPRRP [YOR358W 226-239], for which the normalised SPOT signal, Boehringer light units (BLU); mean over the file's lines of this peptide was found to be 230.

For the molecule DLTVLRKPQQLRP [YDR488C 342-354], the normalised SPOT signal, Boehringer light units (BLU); mean over the file's lines of this peptide amounted to 27100.

In the case of DTLYINGIRIPYRP [YPR032W 898-911], the normalised SPOT signal, Boehringer light units (BLU); mean over the file's lines of this peptide worked out at 135.

For the molecule DVAQPGGVAKPKKP [YNL298W 506-519], the normalised SPOT signal, Boehringer light units (BLU); mean over the file's lines of this peptide was determined as 62.

The molecule DSVLRQKPDKPRP [YMR032W 380-392] gave a normalised SPOT signal, Boehringer light units (BLU); mean over the file's lines of this peptide of 380.

Molecule DTNDIKTPHPERP [YER169W 627-639] gave a normalised SPOT signal, Boehringer light units (BLU); mean over the file's lines of this peptide of 77.3.

In turn, DQNQERKNSVPKKP [YHR004C 68-81] returned a normalised SPOT signal, Boehringer light units (BLU); mean over the file's lines of this peptide of 60.

DVLFSYFPITFKP [YIL128W 218-230] showed a normalised SPOT signal, Boehringer light units (BLU); mean over the file's lines of this peptide of 32.1.

Consider DQVPVTTQLPPIKP [YER159C 3-16], for which the normalised SPOT signal, Boehringer light units (BLU); mean over the file's lines of this peptide was determined as 74.1.

Molecule DSIWPDFETLPERP [YLL029W 272-285] yielded a normalised SPOT signal, Boehringer light units (BLU); mean over the file's lines of this peptide of 0.

For the molecule DVGSTIPYDFPEKP [YGL212W 55-68], the normalised SPOT signal, Boehringer light units (BLU); mean over the file's lines of this peptide came to 140.

DKYSTLRPGIPLKP [YDL164C 380-393] displayed a normalised SPOT signal, Boehringer light units (BLU); mean over the file's lines of this peptide of 1000.

On to DPQIMDEYSYPGRP [YDR182W 95-108], for which the normalised SPOT signal, Boehringer light units (BLU); mean over the file's lines of this peptide worked out at 144.

Take DILDDLSSQKPQKP [YJR033C 1330-1343]: the normalised SPOT signal, Boehringer light units (BLU); mean over the file's lines of this peptide turned out to be 131.

For DSIAKLQPQVYKP [YFR037C 542-554], the normalised SPOT signal, Boehringer light units (BLU); mean over the file's lines of this peptide was 83.3.

EDDTNPQLLEPVKP [YDR528W 157-170]: the normalised SPOT signal, Boehringer light units (BLU); mean over the file's lines of this peptide came out at 86.1.

Take DLPEYLLPPDLKP [YDR477W 309-321]: the normalised SPOT signal, Boehringer light units (BLU); mean over the file's lines of this peptide amounted to 23.2.

Molecule DVKKEQAPEGKRP [YDL213C 31-43] displayed a normalised SPOT signal, Boehringer light units (BLU); mean over the file's lines of this peptide of 94.6.

On to DLHTHNLHTIPRKP [YNL042W 273-286], for which the normalised SPOT signal, Boehringer light units (BLU); mean over the file's lines of this peptide stood at 76.

The molecule DSSLQHQQRQPKRP [YJR147W 209-222] had a normalised SPOT signal, Boehringer light units (BLU); mean over the file's lines of this peptide of 105.

DKKIGSMAINPMRP [YDL156W 333-346] displayed a normalised SPOT signal, Boehringer light units (BLU); mean over the file's lines of this peptide of 183.

Consider DVIISPTTLMPFRP [YDR242W 443-456], for which the normalised SPOT signal, Boehringer light units (BLU); mean over the file's lines of this peptide was 68.9.

For the molecule DKTRSSLHFKPMRP [YNL023C 749-762], the normalised SPOT signal, Boehringer light units (BLU); mean over the file's lines of this peptide is 377.

With DLKSRVLPHLKKP [YNL241C 60-72], the normalised SPOT signal, Boehringer light units (BLU); mean over the file's lines of this peptide came to 440.

DSSSANGKFIPSRP [YHL007C 462-475] gave a normalised SPOT signal, Boehringer light units (BLU); mean over the file's lines of this peptide of 98.6.

DLPRLKWSAIPVRP [YMR265C 218-231] displayed a normalised SPOT signal, Boehringer light units (BLU); mean over the file's lines of this peptide of 2060.

DSKGARFLPAPHRP [YGR154C 60-73] returned a normalised SPOT signal, Boehringer light units (BLU); mean over the file's lines of this peptide of 299.

Take DLNNLKHPSKGRP [YMR304W 152-164]: the normalised SPOT signal, Boehringer light units (BLU); mean over the file's lines of this peptide is 86.6.

Consider DRRRLLGPAAAKP [YGR158C 5-17], for which the normalised SPOT signal, Boehringer light units (BLU); mean over the file's lines of this peptide stood at 483.

Turning to DLNDSGFPPKRKP [YMR275C 4-16], the normalised SPOT signal, Boehringer light units (BLU); mean over the file's lines of this peptide stood at 84.6.
